Results: PMC2887959
Read-outs that look alike come from different tables or passages of the source.

What was measured:
Assay in all cases: fluorescence anisotropy
IN deltaC (IN1-213) [1] = target: T1, IN deltaC (IN1-213) (HIV-1, UniProt P04585 1148-1360)
[2] = target: T2, IN catalytic core CC (IN50-213) (HIV-1, UniProt P04585 1197-1360)
[3] = target: T2, IN catalytic core CC (IN50-213); remark: listed apart in the source
IN deltaC (IN1-213) [4] = target: T1, IN deltaC (IN1-213); remark: listed apart in the source

B1: U5A/U5B (dsDNA)
DNA 1: GTGTGGAAAATCTCTAGCAGT
DNA 2: ACTGCTAGAGATTTTCCACAC
- Kd (IN deltaC (IN1-213) [1]): 60 ± 4 nM
- Kd [2]: 53 ± 13 nM
- Kd [3]: 61 ± 10 nM
- Kd (IN deltaC (IN1-213) [4]): 64 ± 8 nM
